Measured values from patent US20070087400A1, “Covalent tethering of functional groups to proteins and substrates therefor” (priority 2004, published 2007).

What was measured:
[1] = Hydrolysis of FAP by BlaZ (loss of absorbance at 344 nm); type: biochemical, Staphylococcus aureus PC1; details: 25° C., pH 6.8, up to 60 minutes
Method: The chromogenic substrate 6-β-[(Furylacryloyl)amido]penicillanic acid triethylamine salt (FAP) was purchased from Calbiochem (La Jolla, Calif.). […] All assays were performed at 25° C. in 0.1 M potassium phosphate buffer at pH 6.8.

[2] = Hydrolysis of CCF2 (FRET-based substrate) by BlaZ; type: biochemical, Staphylococcus aureus PC1
From the text: In CCF2, the cephalosporin core links a 7-hydroxycoumarin to a fluorescein. In the intact molecule, excitation of the coumarin (Eex-409 nm) results in FRET to the fluorescein, which emits green light (Eem-520 nm). Cleavage of CCF2 by β-lactamase results in spatial separation of the two dyes, disrupting FRET such that excitation of coumarin now gives rise to blue fluorescence (Eex-447 nm). CCF2 was purchased from Aurora Biosciences Corporation (San Diego, Calif.). Reduction of the FRET signal and an increase in blue fluorescence were measured on Fluorescence Multi-well Plate Reader CytoFluorI (PerSeptive Biosystems, Framingham, Mass., USA).

[3] = Precipitation of DhaA proteins with (NH4)2SO4; type: physicochemical; details: 2 hours, 4° C.
Method: Aliquots of the supernatant obtained from E. coli expressing DhaA (WT or one of the mutants) were treated with increasing concentrations of (NH4)2SO4. The proteins were exposed to each (NH4)2SO4 concentration for 2 hours (4° C.), pelleted by centrifugation, dialyzed overnight against buffer A, and resolved on SDS-PAGE.

[4] = Protein immobilization assay (substrate capture using immobilized DhaA); details: biotin-PEG4-14-Cl substrate
[5] = DhaA capture using immobilized biotin chloroalkane substrates (ELISA-type); type: binding
Method: DhaA capture using immobilized chloroalkane substrates. […] Reactions between immobilized substrate and mutant DhaAs were performed using purified GST-DhaA-Flag fusions. Various concentrations of protein (100 μL; diluted in PBSTB) were incubated with immobilized substrate for various times at 25° C., and the reactions were stopped by emptying the plates and washing 4× with PBST. To detect bound DhaA, 100 μL anti-GST-HRP (Amersham) was added to each well at a 1:10,000 dilution (in PBSTB) and the plates incubated for 1 hour at 25° C.

[6] = Covalent alkyl-enzyme formation in whole cells; details: 15 μM substrate, 4° C., approximately 18 hours
[7] = In vitro covalent alkyl-enzyme formation in crude lysates; details: 25 μM substrate, 2 hours at room temperature
[8] = In vivo labeling of DhaA mutants expressed in CHO-K1 cells (cell-to-gel analysis); type: cell-based; details: substrate concentration 5 μM
Method: Cell-to-gel analysis. […] Proteins (2-10 μl/lane) were resolved on SDS-PAGE (4-20% gradient gels).

[9] = Thermostability analysis (residual activity by FP assay); type: physicochemical; details: 60 minute incubations
Method: Thermostability analysis. The thermostability profiles of the DhaA mutants were determined by measuring the residual activity of the purified proteins following 15, 30 or 60 minute incubations at 4, 22, 30, 37, 42, 50 or 60° C. The FP assay was performed at room temperature (about 25° C.). […] For each clone, the labeling rate (slope of the linear range) was calculated for each condition. The rate observed following a 15 minute incubation at 4° C. was arbitrarily assigned as 100% activity. The residual activity (%) was calculated for each condition. To determine stability, for each incubation time, the % of residual activity was plotted against the incubation temperatures. To calculate half-life, for each incubation temperature, the % of residual activity was plotted against the incubation time. The time where 50% activity was lost was extrapolated from the graph.

B1: BlaZ.N170Q (protein, UniProt P00807 25-281, looked up, variant N170Q)
Beta-lactamase: KELNDLEKKYNAHIGVYALDTKSGKEVKFNSDKRFAYASTSKAINSAILLEQVPYNKLNKKVHINKDDIVAYSPILEKYVGKDITLKALIEASMTYSDNTANNKIIKEIGGIKKVKQRLKELGDKVTNPVRYEIELNYYSPKSKKDTSTPAAFGKTLNKLIANGKLSKEQKKFLLDLMLNNKSGDTLIKDGVPKDYKVADKSGQAITYASRNDVAFVYPKGQSEPIVLVIFTNKDNKSDKPNDKLISETAKSVMKEF
In the case of B1, the “hydrolysis of FAP” value [1] is reported as “could not be detected” and the “hydrolysis of CCF2” value [2] is reported as “reduced the ability”.

B2: DhaA.H272Q: DhaA mutant with H272Q substitution (protein, UniProt P0A3G2 1-293, looked up, variant H272Q)
Haloalkane dehalogenase: MSEIGTGFPFDPHYVEVLGERMHYVDVGPRDGTPVLFLHGNPTSSYLWRNIIPHVAPSHRCIAPDLIGMGKSDKPDLDYFFDDHVRYLDAFIEALGLEEVVLVIHDWGSALGFHWAKRNPERVKGIACMEFIRPIPTWDEWPEFARETFQAFRTADVGRELIIDQNAFIEGALPKCVVRPLTEVEMDHYREPFLKPVDREPLWRFPNELPIAGEPANIVALVEAYMNWLHQSPVPKLLFWGTPGVLIPPAEAARLAESLPNCKTVDIGPGLQYLQEDNPDLIGSEIARWLPAL
In the case of B2, the “(NH4)2SO4 concentration at which the protein was precipitated” value (“(NH4)2SO4 concentration” below) [3] is reported as 10%.

B3: DhaA.H272A: DhaA mutant with H272A substitution (protein, UniProt P0A3G2 1-293, looked up, variant H272A)
Haloalkane dehalogenase: MSEIGTGFPFDPHYVEVLGERMHYVDVGPRDGTPVLFLHGNPTSSYLWRNIIPHVAPSHRCIAPDLIGMGKSDKPDLDYFFDDHVRYLDAFIEALGLEEVVLVIHDWGSALGFHWAKRNPERVKGIACMEFIRPIPTWDEWPEFARETFQAFRTADVGRELIIDQNAFIEGALPKCVVRPLTEVEMDHYREPFLKPVDREPLWRFPNELPIAGEPANIVALVEAYMNWLHQSPVPKLLFWGTPGVLIPPAEAARLAESLPNCKTVDIGPGLAYLQEDNPDLIGSEIARWLPAL
For B3, the “(NH4)2SO4 concentration” value [3] was 10%.

B4: DhaA.H272F YL: DhaA.H272F based mutant with Y273L (protein, UniProt P0A3G2 1-293, looked up, variant H272F Y273L)
Haloalkane dehalogenase: MSEIGTGFPFDPHYVEVLGERMHYVDVGPRDGTPVLFLHGNPTSSYLWRNIIPHVAPSHRCIAPDLIGMGKSDKPDLDYFFDDHVRYLDAFIEALGLEEVVLVIHDWGSALGFHWAKRNPERVKGIACMEFIRPIPTWDEWPEFARETFQAFRTADVGRELIIDQNAFIEGALPKCVVRPLTEVEMDHYREPFLKPVDREPLWRFPNELPIAGEPANIVALVEAYMNWLHQSPVPKLLFWGTPGVLIPPAEAARLAESLPNCKTVDIGPGLFLLQEDNPDLIGSEIARWLPAL
In the case of B4, the “activity compared to parental clones” value [4] is reported as “significantly improved” and the “reaction with immobilized biotin-PEG4-14-Cl” value [5] is reported as “react most efficiently”.

B5: DhaA.H272F: DhaA mutant, catalytic His272 replaced with Phe (protein, UniProt P0A3G2 1-293, looked up, variant H272F)
Haloalkane dehalogenase: MSEIGTGFPFDPHYVEVLGERMHYVDVGPRDGTPVLFLHGNPTSSYLWRNIIPHVAPSHRCIAPDLIGMGKSDKPDLDYFFDDHVRYLDAFIEALGLEEVVLVIHDWGSALGFHWAKRNPERVKGIACMEFIRPIPTWDEWPEFARETFQAFRTADVGRELIIDQNAFIEGALPKCVVRPLTEVEMDHYREPFLKPVDREPLWRFPNELPIAGEPANIVALVEAYMNWLHQSPVPKLLFWGTPGVLIPPAEAARLAESLPNCKTVDIGPGLFYLQEDNPDLIGSEIARWLPAL
In the case of B5, the “formation of covalent alkyl-enzyme intermediate in whole cells” value [6] is reported as “capable of generating a covalent alkyl-enzyme intermediate” and the “formation of alkyl-enzyme covalent intermediate in crude lysates” value [7] is reported as “very efficient at producing this intermediate”.

B6: DhaA.H272F YC: DhaA.H272F based mutant with Y273C (protein, UniProt P0A3G2 1-293, looked up, variant H272F Y273C)
Haloalkane dehalogenase: MSEIGTGFPFDPHYVEVLGERMHYVDVGPRDGTPVLFLHGNPTSSYLWRNIIPHVAPSHRCIAPDLIGMGKSDKPDLDYFFDDHVRYLDAFIEALGLEEVVLVIHDWGSALGFHWAKRNPERVKGIACMEFIRPIPTWDEWPEFARETFQAFRTADVGRELIIDQNAFIEGALPKCVVRPLTEVEMDHYREPFLKPVDREPLWRFPNELPIAGEPANIVALVEAYMNWLHQSPVPKLLFWGTPGVLIPPAEAARLAESLPNCKTVDIGPGLFCLQEDNPDLIGSEIARWLPAL
In the case of B6, the “activity compared to parental clones” value [4] is reported as “significantly improved”.

B7: DhaA.WT: wild-type Rhodococcus rhodochrous dehalogenase (DhaA) (protein, UniProt P0A3G2 1-293, looked up)
Haloalkane dehalogenase: MSEIGTGFPFDPHYVEVLGERMHYVDVGPRDGTPVLFLHGNPTSSYLWRNIIPHVAPSHRCIAPDLIGMGKSDKPDLDYFFDDHVRYLDAFIEALGLEEVVLVIHDWGSALGFHWAKRNPERVKGIACMEFIRPIPTWDEWPEFARETFQAFRTADVGRELIIDQNAFIEGALPKCVVRPLTEVEMDHYREPFLKPVDREPLWRFPNELPIAGEPANIVALVEAYMNWLHQSPVPKLLFWGTPGVLIPPAEAARLAESLPNCKTVDIGPGLHYLQEDNPDLIGSEIARWLPAL
For B7, the “formation of alkyl-enzyme covalent intermediate in crude lysates” value [7] was “No such product could be detected”.

B8: DhaA.H272F H11: first generation DhaA.H272F mutant with K175M and C176G (protein, UniProt P0A3G2 1-293, looked up, variant K175M C176G H272F)
Haloalkane dehalogenase: MSEIGTGFPFDPHYVEVLGERMHYVDVGPRDGTPVLFLHGNPTSSYLWRNIIPHVAPSHRCIAPDLIGMGKSDKPDLDYFFDDHVRYLDAFIEALGLEEVVLVIHDWGSALGFHWAKRNPERVKGIACMEFIRPIPTWDEWPEFARETFQAFRTADVGRELIIDQNAFIEGALPMGVVRPLTEVEMDHYREPFLKPVDREPLWRFPNELPIAGEPANIVALVEAYMNWLHQSPVPKLLFWGTPGVLIPPAEAARLAESLPNCKTVDIGPGLFYLQEDNPDLIGSEIARWLPAL
In the case of B8, the “in vivo labeling performance compared to parent DhaA.H272F” value [8] is reported as “superior performance characteristics”, the “reaction with all biotin substrates tested” value ([5]; biotin-14-Cl, biotin-X-14-Cl, biotin-PEG4-14-Cl) is reported as “reacted poorly” and the “retained significant labeling activity following incubation as high as” value [9] is reported as at most 50 °C.

B9: DhaA.H272G: DhaA mutant with H272G substitution (protein, UniProt P0A3G2 1-293, looked up, variant H272G)
Haloalkane dehalogenase: MSEIGTGFPFDPHYVEVLGERMHYVDVGPRDGTPVLFLHGNPTSSYLWRNIIPHVAPSHRCIAPDLIGMGKSDKPDLDYFFDDHVRYLDAFIEALGLEEVVLVIHDWGSALGFHWAKRNPERVKGIACMEFIRPIPTWDEWPEFARETFQAFRTADVGRELIIDQNAFIEGALPKCVVRPLTEVEMDHYREPFLKPVDREPLWRFPNELPIAGEPANIVALVEAYMNWLHQSPVPKLLFWGTPGVLIPPAEAARLAESLPNCKTVDIGPGLGYLQEDNPDLIGSEIARWLPAL
In the case of B9, the “(NH4)2SO4 concentration” value [3] is reported as 10%.

B10: DhaA.H272F YM: DhaA.H272F based mutant with Y273M (protein, UniProt P0A3G2 1-293, looked up, variant H272F Y273M)
Haloalkane dehalogenase: MSEIGTGFPFDPHYVEVLGERMHYVDVGPRDGTPVLFLHGNPTSSYLWRNIIPHVAPSHRCIAPDLIGMGKSDKPDLDYFFDDHVRYLDAFIEALGLEEVVLVIHDWGSALGFHWAKRNPERVKGIACMEFIRPIPTWDEWPEFARETFQAFRTADVGRELIIDQNAFIEGALPKCVVRPLTEVEMDHYREPFLKPVDREPLWRFPNELPIAGEPANIVALVEAYMNWLHQSPVPKLLFWGTPGVLIPPAEAARLAESLPNCKTVDIGPGLFMLQEDNPDLIGSEIARWLPAL
With B10 the “activity compared to parental clones” value [4] was “significantly improved” and the “reaction with immobilized biotin-PEG4-14-Cl” value [5] was “react most efficiently”.
